Laboratory results: article PMC9001700 (Communications Biology, 2022)

Target: SARS-CoV-2 S6P (SARS-CoV-2, Wuhan-Hu-1 (assumed), UniProt P0DTC2, stabilised, biotinylated (site not stated))
Assay: BLI
Settings: both partners purified

Row | Binder | Kd | binding result
1 | CV3-25 Fab (Fab, V domains shown, also called monovalent Fab) VH: QVQLVESGAEVKKPGESLKISCKGSGYTFTRYWIGWVRQMPGKGLEWMGIIYPGDSDTRYSPSFQGHVTISADKSISTAYLQWNSLKASDTAMYYCARLPQYCSNGVCQRWFDPWGQGTLVTVSS VL: EIVLTQSPSSVSASVGDRVTITCRASQGISSWLAWYQQKPGKAPKLLIYAASSLQSGVPSRFSGSGSGTDFTLTISSLQPEDFATYYCQQGNSFPYTFGQGTNLEIK | ~0.6 nM | 
2 | B6 mAb (antibody, V domains shown, source: 293 cells, purified using protein A resin) VH: EVQLQQSGPVLVKPGASVRMSCKASGYTITDYYLNWVKQSHGKSLEWLGVLNPYSGGSLYSQTFKGKATLTVDRSSSTAYLELNSLTSEDSAVYYCARQLGRGNGLDYWGQGTSVTVSS VL: NIMMTQSPSSLAVSAGEKVTMSCKSSQSVLHSSDQKNYLAWYQQKPGQSPKLLIYWASTRESGVPDRFTGSGSGTDFTLTISSVQAEDLAVYFCHQYLSSYTFGGGTKLEIK |  | binds
